Test results taken from US20180105569A1 (INDIANA UNIVERSITY RESEARCH AND TECHNOLOGY, published 2018).
Where two headings read alike, the source gives them in different places. Numbered stars: 1 amine (or outer) side, 2 acyl side, 3 side chain; on linkers, the order of the positions; unused ones are H or OH. Square brackets hold non-standard residues; d marks the D form. Side chains are listed from the residue outwards. Ends that are not written are not given here. * marks the point of attachment. 4‑HPA = 4-hydroxyphenylacetic acid, O=C(Cc1ccc(O[*:3])cc1)[*:2]; C16 acyl = C16 fatty acyl group bound via a gamma-Glu spacer; γGlu = O=C(O)[C@H](CCC(=O)[*:2])N[*:1]; Desaminotyrosyl = O=C(CCc1ccc(O)cc1)*; Palmitoyl = CCCCCCCCCCCCCCCC(=O)*

T1: GIP receptor (UniProt P48546 22-466, limits assumed)
T1 sequence (looked up): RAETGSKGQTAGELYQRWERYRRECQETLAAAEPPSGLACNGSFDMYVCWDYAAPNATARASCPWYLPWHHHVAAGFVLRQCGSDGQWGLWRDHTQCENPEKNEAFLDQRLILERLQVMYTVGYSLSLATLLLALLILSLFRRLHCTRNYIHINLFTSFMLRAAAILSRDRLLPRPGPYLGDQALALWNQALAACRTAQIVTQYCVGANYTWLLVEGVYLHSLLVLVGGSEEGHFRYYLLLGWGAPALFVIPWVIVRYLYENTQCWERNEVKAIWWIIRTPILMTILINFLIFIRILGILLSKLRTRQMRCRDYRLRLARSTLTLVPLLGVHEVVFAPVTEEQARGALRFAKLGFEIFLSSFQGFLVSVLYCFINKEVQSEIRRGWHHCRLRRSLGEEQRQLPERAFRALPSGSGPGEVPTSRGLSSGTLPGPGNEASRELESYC


What was measured:
Assay in all cases: cell-based or functional assay
[1] = molecular target: T2, glucagon receptor (UniProt P47871 26-477, limits assumed)
T2 sequence (P47871 26-477 limits assumed): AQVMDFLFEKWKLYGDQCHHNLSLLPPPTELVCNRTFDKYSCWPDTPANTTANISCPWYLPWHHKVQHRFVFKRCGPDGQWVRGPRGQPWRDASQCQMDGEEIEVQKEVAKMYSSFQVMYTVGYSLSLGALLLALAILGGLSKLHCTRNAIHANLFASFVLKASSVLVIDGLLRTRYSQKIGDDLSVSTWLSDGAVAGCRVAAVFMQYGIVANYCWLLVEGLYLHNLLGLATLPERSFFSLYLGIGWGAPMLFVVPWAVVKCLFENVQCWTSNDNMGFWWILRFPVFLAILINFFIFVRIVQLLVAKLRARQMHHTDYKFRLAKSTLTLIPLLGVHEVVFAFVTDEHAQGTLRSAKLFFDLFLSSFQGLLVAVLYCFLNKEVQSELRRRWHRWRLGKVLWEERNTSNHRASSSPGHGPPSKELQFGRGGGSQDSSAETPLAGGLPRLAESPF

[2] = molecular target: T3, GLP-1 receptor (UniProt P43220 24-463, limits assumed)
[3] = molecular target: T1, GIP receptor
[4] = molecular target: T2, glucagon receptor; remark: listed apart in the source
[5] = molecular target: T3, GLP-1 receptor; remark: listed apart in the source
[6] = molecular target: T1, GIP receptor; remark: listed apart in the source

| Binder | EC50 at Glucagon Receptor (cAMP luciferase reporter, HEK293) [1] | EC50 at GLP-1 Receptor (cAMP luciferase reporter, HEK293) [2] | EC50 at GIP Receptor (cAMP luciferase reporter, HEK293) [3] | EC50 at Glucagon Receptor (cAMP luciferase reporter, HEK293) [4] | EC50 at GLP-1 Receptor (cAMP luciferase reporter, HEK293) [5] | EC50 at GIP Receptor (cAMP luciferase reporter, HEK293) [6] |
| --- | --- | --- | --- | --- | --- | --- |
| Ac-[dY]AQGTFTSDK([γGlu-Palmitoyl])SKYLDERAAQDFVQWLLEAGPSSGAPPPS-NH2 (SMILES CCCCCCCCCCCCCCCC(=O)N[C@@H](CCC(=O)NCCCC[C@H](NC(=O)[C@H](CC(=O)O)NC(=O)[C@H](CO)NC(=O)[C@@H](NC(=O)[C@H](Cc1ccccc1)NC(=O)[C@@H](NC(=O)CNC(=O)[C@H](CCC(N)=O)NC(=O)[C@H](C)NC(=O)[C@@H](Cc1ccc(O)cc1)NC(C)=O)[C@@H](C)O)[C@@H](C)O)C(=O)N[C@@H](CO)C(=O)N[C@@H](CCCCN)C(=O)N[C@@H](Cc1ccc(O)cc1)C(=O)N[C@@H](CC(C)C)C(=O)N[C@@H](CC(=O)O)C(=O)N[C@@H](CCC(=O)O)C(=O)N[C@@H](CCCNC(=N)N)C(=O)N[C@@H](C)C(=O)N[C@@H](C)C(=O)N[C@@H](CCC(N)=O)C(=O)N[C@@H](CC(=O)O)C(=O)N[C@@H](Cc1ccccc1)C(=O)N[C@H](C(=O)N[C@@H](CCC(N)=O)C(=O)N[C@@H](Cc1c[nH]c2ccccc12)C(=O)N[C@@H](CC(C)C)C(=O)N[C@@H](CC(C)C)C(=O)N[C@@H](CCC(=O)O)C(=O)N[C@@H](C)C(=O)NCC(=O)N1CCC[C@H]1C(=O)N[C@@H](CO)C(=O)N[C@@H](CO)C(=O)NCC(=O)N[C@@H](C)C(=O)N1CCC[C@H]1C(=O)N1CCC[C@H]1C(=O)N1CCC[C@H]1C(=O)N[C@@H](CO)C(N)=O)C(C)C)C(=O)O) [peptide of SEQ ID NO: 146] | 0.009 nM | 0.007 nM | 0.006 nM | – | – | – |
| Ac-[dH]AQGTFTSDK([γGlu-Palmitoyl])SKYLDERAAQDFVQWLLEAGPSSGAPPPS-NH2 [peptide of SEQ ID NO: 151] | – | – | – | 0.003 nM | 0.002 nM | 0.014 nM |
| Ac-[dY]AQGTFTSDK([γGlu-Palmitoyl])SKYLDERAAQDFVQWLLDLGPSSGAPPPS-NH2 [peptide of SEQ ID NO: 153] | 0.021 nM | 0.017 nM | 0.018 nM | – | – | – |
| Ac-[dY]AEGTFTSDK([γGlu-Palmitoyl])SKYLDERAAQDFVQWLLEAGPSSGAPPPS-NH2 (SMILES CCCCCCCCCCCCCCCC(=O)N[C@@H](CCC(=O)NCCCC[C@H](NC(=O)[C@H](CC(=O)O)NC(=O)[C@H](CO)NC(=O)[C@@H](NC(=O)[C@H](Cc1ccccc1)NC(=O)[C@@H](NC(=O)CNC(=O)[C@H](CCC(=O)O)NC(=O)[C@H](C)NC(=O)[C@@H](Cc1ccc(O)cc1)NC(C)=O)[C@@H](C)O)[C@@H](C)O)C(=O)N[C@@H](CO)C(=O)N[C@@H](CCCCN)C(=O)N[C@@H](Cc1ccc(O)cc1)C(=O)N[C@@H](CC(C)C)C(=O)N[C@@H](CC(=O)O)C(=O)N[C@@H](CCC(=O)O)C(=O)N[C@@H](CCCNC(=N)N)C(=O)N[C@@H](C)C(=O)N[C@@H](C)C(=O)N[C@@H](CCC(N)=O)C(=O)N[C@@H](CC(=O)O)C(=O)N[C@@H](Cc1ccccc1)C(=O)N[C@H](C(=O)N[C@@H](CCC(N)=O)C(=O)N[C@@H](Cc1c[nH]c2ccccc12)C(=O)N[C@@H](CC(C)C)C(=O)N[C@@H](CC(C)C)C(=O)N[C@@H](CCC(=O)O)C(=O)N[C@@H](C)C(=O)NCC(=O)N1CCC[C@H]1C(=O)N[C@@H](CO)C(=O)N[C@@H](CO)C(=O)NCC(=O)N[C@@H](C)C(=O)N1CCC[C@H]1C(=O)N1CCC[C@H]1C(=O)N1CCC[C@H]1C(=O)N[C@@H](CO)C(N)=O)C(C)C)C(=O)O) [peptide of SEQ ID NO: 144] | – | – | – | 1.3 nM | 0.017 nM | 0.003 nM |
| Ac-[dY]AQGTFTSDYSKYLDERAAQDFVQWLLEAGPSSGAPPPSK([γGlu-γGlu-Palmitoyl])G-NH2 [peptide of SEQ ID NO: 159] | – | – | – | 0.04 nM | 0.009 nM | 0.08 nM |
| Ac-[dY]AQGTFTSDYSKYLDERAAQDFVQWLLEGGPSSGAPPPSK([γGlu-γGlu-Palmitoyl])G-NH2 [peptide of SEQ ID NO: 149] | – | – | – | 0.012 nM | 0.002 nM | 0.008 nM |
| Ac-[dH]AQGTFTSDYSKYLDERAAQDFVQWLLEGGPSSGAPPPSK([γGlu-γGlu-Palmitoyl])G-NH2 [peptide of SEQ ID NO: 152] | 0.003 nM | 0.003 nM | 0.017 nM | – | – | – |
| [4‑HPA]AQGTFTSDK([γGlu-C16 acyl])SKYLDERAAQDFVQWLLEGGPSSGAPPPS-NH2 [peptide of SEQ ID NO: 156] | – | – | – | 0.011 nM | 0.002 nM | 0.042 nM |
| [Desaminotyrosyl]AQGTFTSDYSKYLDERAAQDFVQWLLEGGPSSGAPPPSK([γGlu-γGlu-Palmitoyl])G-NH2 [peptide of SEQ ID NO: 160] | – | – | – | 0.049 nM | 0.022 nM | 0.086 nM |
| [Desaminotyrosyl]AQGTFTSDYSKYLDERAAQDFVQWLLEGGPSSGAPPPSK(Palmitoyl)G-NH2 [peptide of SEQ ID NO: 157] | – | – | – | 0.047 nM | 0.013 nM | 0.059 nM |
| Ac-[dH]AEGTFTSDK([γGlu-Palmitoyl])SKYLDERAAQDFVQWLLEAGPSSGAPPPS-NH2 [peptide of SEQ ID NO: 154] | – | – | – | 0.847 nM | 0.004 nM | 0.024 nM |
| Ac-[dH]AEGTFTSDK([γGlu-Palmitoyl])SKYLDERAAQDFVQWLLEGGPSSGAPPPS-NH2 (SMILES CCCCCCCCCCCCCCCC(=O)N[C@@H](CCC(=O)NCCCC[C@H](NC(=O)[C@H](CC(=O)O)NC(=O)[C@H](CO)NC(=O)[C@@H](NC(=O)[C@H](Cc1ccccc1)NC(=O)[C@@H](NC(=O)CNC(=O)[C@H](CCC(=O)O)NC(=O)[C@H](C)NC(=O)[C@@H](Cc1c[nH]cn1)NC(C)=O)[C@@H](C)O)[C@@H](C)O)C(=O)N[C@@H](CO)C(=O)N[C@@H](CCCCN)C(=O)N[C@@H](Cc1ccc(O)cc1)C(=O)N[C@@H](CC(C)C)C(=O)N[C@@H](CC(=O)O)C(=O)N[C@@H](CCC(=O)O)C(=O)N[C@@H](CCCNC(=N)N)C(=O)N[C@@H](C)C(=O)N[C@@H](C)C(=O)N[C@@H](CCC(N)=O)C(=O)N[C@@H](CC(=O)O)C(=O)N[C@@H](Cc1ccccc1)C(=O)N[C@H](C(=O)N[C@@H](CCC(N)=O)C(=O)N[C@@H](Cc1c[nH]c2ccccc12)C(=O)N[C@@H](CC(C)C)C(=O)N[C@@H](CC(C)C)C(=O)N[C@@H](CCC(=O)O)C(=O)NCC(=O)NCC(=O)N1CCC[C@H]1C(=O)N[C@@H](CO)C(=O)N[C@@H](CO)C(=O)NCC(=O)N[C@@H](C)C(=O)N1CCC[C@H]1C(=O)N1CCC[C@H]1C(=O)N1CCC[C@H]1C(=O)N[C@@H](CO)C(N)=O)C(C)C)C(=O)O) [peptide of SEQ ID NO: 148] | – | – | – | 0.178 nM | 0.002 nM | – |
| Ac-[dF]AQGTFTSDK([γGlu-Palmitoyl])SKYLDERAAQDFVQWLLEGGPSSGAPPPS-NH2 [peptide of SEQ ID NO: 150] | – | – | – | 0.014 nM | 0.002 nM | 0.011 nM |
| Ac-[dY]AQGTFTSDK([γGlu-Palmitoyl])SKYLDERAAQDFVQWLLDAGPSSGAPPPS-NH2 [peptide of SEQ ID NO: 143] | 0.004 nM | 0.003 nM | 0.003 nM | – | – | – |
| Ac-[dY]ALGTFTSDK([γGlu-Palmitoyl])SKYLDERAAQDFVQWLLEGGPSSGAPPPS-NH2 [peptide of SEQ ID NO: 142] | – | – | – | 0.103 nM | 0.005 nM | 0.002 nM |
